# From the Immune Epitope Database (IEDB)
# Key:
# [1] = molecular target: HLA-A*02:01; experiment: IEDB peptide-MHC binding, purified MHC/competitive/radioactivity; ≥ and ≤ were set here for values at or beyond the usual limits of such assays
# [2] = molecular target: HLA-A*11:01; experiment: IEDB peptide-MHC binding, purified MHC/competitive/fluorescence; filed as Kd, often an IC50 or EC50 that approximates it; ≥ and ≤ were set here for values at or beyond the usual limits of such assays; details: source organism: Influenza A virus (A/duck/Hong Kong/3096/99(H6N2))
# [3] = molecular target: HLA-B*15:01; experiment: as above
# [4] = molecular target: HLA-B*40:01; experiment: IEDB peptide-MHC binding, purified MHC/direct/fluorescence; filed as Kd, often an IC50 or EC50 that approximates it; ≥ and ≤ were set here for values at or beyond the usual limits of such assays
# [5] = molecular target: HLA-A*03:01; experiment: as above
# [6] = molecular target: HLA-B*58:01; experiment: as above
# [7] = molecular target: HLA-A*31:01; experiment: as above
# [8] = molecular target: HLA-A*02:01; experiment: as above
# [9] = molecular target: HLA-B*08:01; experiment: as above
# [10] = molecular target: HLA-B*57:01; experiment: as above
# [11] = molecular target: HLA-B*15:09; experiment: as above
# [12] = molecular target: HLA-B*15:17; experiment: as above
# [13] = molecular target: HLA-B*48:01; experiment: as above
# [14] = molecular target: HLA-B*39:01; experiment: as above
# [15] = molecular target: HLA-B*46:01; experiment: as above
# [16] = molecular target: HLA-A*26:01; experiment: as above
# [17] = molecular target: HLA-B*08:02; experiment: as above
# [18] = molecular target: HLA-B*38:01; experiment: as above
# [19] = molecular target: HLA-A*01:01; experiment: as above
# [20] = molecular target: HLA-A*69:01; experiment: as above
# [21] = molecular target: HLA-B*27:05; experiment: as above
# [22] = molecular target: HLA-B*15:09; experiment: IEDB peptide-MHC binding, purified MHC/competitive/fluorescence; filed as Kd, often an IC50 or EC50 that approximates it; ≥ and ≤ were set here for values at or beyond the usual limits of such assays; details: source organism: Mycobacterium tuberculosis str. Haarlem
# [23] = molecular target: HLA-A*11:01; experiment: IEDB peptide-MHC binding, purified MHC/direct/fluorescence; filed as Kd, often an IC50 or EC50 that approximates it; ≥ and ≤ were set here for values at or beyond the usual limits of such assays; details: source organism: Mycobacterium tuberculosis
# [24] = molecular target: HLA-B*15:01; experiment: as above; details: source organism: Mycobacterium tuberculosis
# [25] = molecular target: HLA-B*18:01; experiment: as above; details: source organism: Mycobacterium tuberculosis
# [26] = molecular target: HLA-B*40:01; experiment: IEDB peptide-MHC binding, purified MHC/competitive/fluorescence; filed as Kd, often an IC50 or EC50 that approximates it; ≥ and ≤ were set here for values at or beyond the usual limits of such assays
# [27] = molecular target: HLA-A*02:01; experiment: as above; details: source organism: Shigella boydii CDC 3083-94
# [28] = molecular target: HLA-B*39:01; experiment: as above; details: source organism: Shigella boydii CDC 3083-94
# [29] = molecular target: HLA-B*07:02; experiment: as above; details: source organism: Shigella boydii CDC 3083-94
# [30] = molecular target: HLA-A*31:01; experiment: as above; details: source organism: Mycobacterium tuberculosis variant bovis BCG str. Pasteur 1173P2
# [31] = molecular target: HLA-B*08:01; experiment: as above; details: source organism: Mycobacterium tuberculosis variant bovis BCG str. Pasteur 1173P2
# [32] = molecular target: HLA-B*57:01; experiment: as above; details: source organism: Mycobacterium tuberculosis variant bovis BCG str. Pasteur 1173P2
# [33] = molecular target: HLA-B*51:01; experiment: IEDB peptide-MHC binding, purified MHC/direct/fluorescence; filed as Kd, often an IC50 or EC50 that approximates it; ≥ and ≤ were set here for values at or beyond the usual limits of such assays; details: source organism: Mycobacterium tuberculosis
# [34] = molecular target: HLA-A*02:01; experiment: IEDB peptide-MHC binding, purified MHC/competitive/radioactivity; filed as Kd, often an IC50 or EC50 that approximates it; ≥ and ≤ were set here for values at or beyond the usual limits of such assays; details: source organism: Homo sapiens
# [35] = molecular target: HLA-B*46:01; experiment: IEDB peptide-MHC binding, purified MHC/competitive/fluorescence; filed as Kd, often an IC50 or EC50 that approximates it; ≥ and ≤ were set here for values at or beyond the usual limits of such assays; details: source organism: Giardia lamblia ATCC 50803
# [36] = molecular target: HLA-A*26:02; experiment: IEDB peptide-MHC binding, purified MHC/direct/fluorescence; filed as Kd, often an IC50 or EC50 that approximates it; ≥ and ≤ were set here for values at or beyond the usual limits of such assays
# [37] = molecular target: HLA-C*12:03; experiment: as above
# [38] = molecular target: HLA-C*14:02; experiment: as above; details: source organism: Yellow fever virus
# [39] = molecular target: HLA-C*06:02; experiment: as above; details: source organism: Yellow fever virus
# [40] = molecular target: HLA-C*07:02; experiment: as above; details: source organism: Yellow fever virus
# [41] = molecular target: HLA-C*15:02; experiment: as above; details: source organism: Yellow fever virus
# [42] = source organism: Influenza A virus (A/swine/Miyagi/5/2003(H1N2))
# [43] = source organism: Influenza A virus(A/swine/Shandong/fZC/2003(H9N2))
# [44] = source organism: Mycobacterium tuberculosis
# [45] = source organism: Mycobacterium tuberculosis str. Haarlem
# [46] = source organism: Shigella boydii CDC 3083-94
# [47] = source organism: Escherichia coli 536
# [48] = source organism: Giardia lamblia ATCC 50803
# [49] = source organism: Yellow fever virus
sequence,measurement,setting,value
FLPADFFPSI,IC50,[1]; source organism: Hepatitis B virus,0.016 µM
GTEKLTITY,Kd,[2],≥ 20 µM
same,Kd,[3]; source organism: Influenza A virus (A/duck/Hong Kong/3096/99(H6N2)),≥ 20 µM
same,Kd,[4]; [42],≥ 20 µM
same,Kd,[5]; [42],≥ 20 µM
same,Kd,[6]; [42],≥ 20 µM
same,Kd,[7]; [42],≥ 20 µM
same,Kd,[8]; [42],≥ 20 µM
same,Kd,[9]; [43],≥ 20 µM
same,Kd,[10]; [42],≥ 20 µM
same,Kd,[11]; [43],≥ 20 µM
same,Kd,[12]; [42],0.0065 µM
same,Kd,[13]; [42],≥ 20 µM
same,Kd,[14]; [43],≥ 20 µM
same,Kd,[15]; [42],≥ 20 µM
same,Kd,[16]; [43],≥ 20 µM
same,Kd,[17]; [43],≥ 20 µM
same,Kd,[18]; [43],≥ 20 µM
same,Kd,[19]; [42],0.0083 µM
same,Kd,[20]; [42],≥ 20 µM
same,Kd,[21]; [42],≥ 20 µM
IPAPGLGAL,Kd,[22],4.06 µM
same,Kd,[4]; [44],≥ 20 µM
same,Kd,[23],≥ 20 µM
same,Kd,[5]; [44],≥ 20 µM
same,Kd,[6]; [44],≥ 20 µM
same,Kd,[7]; [44],≥ 20 µM
same,Kd,[24],≥ 20 µM
same,Kd,[8]; [44],≥ 20 µM
same,Kd,[9]; [45],≥ 20 µM
same,Kd,[10]; [44],≥ 20 µM
same,Kd,[12]; [44],≥ 20 µM
same,Kd,[13]; [44],≥ 20 µM
same,Kd,[15]; [44],≥ 20 µM
same,Kd,[16]; [45],11.1 µM
same,Kd,[25],≥ 20 µM
same,Kd,[19]; [44],≥ 20 µM
same,Kd,[20]; [44],0.24 µM
same,Kd,[21]; [44],≥ 20 µM
QEPGIFCAI,Kd,[26]; [46],0.0105 µM
same,Kd,[3]; [46],≥ 20 µM
same,Kd,[27],0.116 µM
same,Kd,[28],0.496 µM
same,Kd,[29],≥ 20 µM
RIRSERPAF,Kd,[30],0.982 µM
same,Kd,[31],2.25 µM
same,Kd,[32],0.935 µM
same,Kd,[4]; [44],≥ 20 µM
same,Kd,[23],≥ 20 µM
same,Kd,[5]; [45],0.381 µM
same,Kd,[6]; [44],≥ 20 µM
same,Kd,[24],0.0278 µM
same,Kd,[8]; [44],≥ 20 µM
same,Kd,[11]; [45],≥ 20 µM
same,Kd,[13]; [44],≥ 20 µM
same,Kd,[14]; [45],≥ 20 µM
same,Kd,[15]; [44],≥ 20 µM
same,Kd,[25],≥ 20 µM
same,Kd,[19]; [44],≥ 20 µM
same,Kd,[20]; [44],≥ 20 µM
same,Kd,[33],≥ 20 µM
same,Kd,[21]; [44],≥ 20 µM
RQASIELPSMAV,IC50,[1]; source organism: Homo sapiens,1.77 µM
SLYNAVATL,IC50,[1]; source organism: Human immunodeficiency virus 1,0.029 µM
VPRDRNGTF,Kd,[4]; [44],≥ 20 µM
same,Kd,[23],≥ 20 µM
same,Kd,[5]; [44],≥ 20 µM
same,Kd,[6]; [44],≥ 20 µM
same,Kd,[7]; [44],≥ 20 µM
same,Kd,[24],≥ 20 µM
same,Kd,[8]; [44],≥ 20 µM
same,Kd,[9]; [45],0.624 µM
same,Kd,[10]; [44],≥ 20 µM
same,Kd,[11]; [45],≥ 20 µM
same,Kd,[12]; [44],≥ 20 µM
same,Kd,[13]; [44],≥ 20 µM
same,Kd,[15]; [44],≥ 20 µM
same,Kd,[17]; [45],19 µM
same,Kd,[25],≥ 20 µM
same,Kd,[18]; [45],≥ 20 µM
same,Kd,[19]; [44],≥ 20 µM
same,Kd,[20]; [44],≥ 20 µM
same,Kd,[33],≥ 20 µM
same,Kd,[21]; [44],≥ 20 µM
VVLSWAPPV,Kd,[34],0.0084 µM
same,IC50,[1]; source organism: Homo sapiens,0.0025 µM
YEDEDIIVI,Kd,[26]; [47],0.0043 µM
same,Kd,[3]; [47],3.5 µM
YSAEALLPY,Kd,[35],0.0551 µM
same,Kd,[36]; [48],0.003 µM
same,Kd,[16]; [48],0.009 µM
same,Kd,[37]; [48],0.013 µM
YVIRDLAAM,Kd,[38],0.079 µM
same,Kd,[39],≥ 20 µM
same,Kd,[36]; [49],≤ 0.001 µM
same,Kd,[37]; [49],0.023 µM
same,Kd,[40],0.59 µM
same,Kd,[41],0.274 µM
